Results as given in the supplement of paper PMC9170038.

System: MS2 coat protein
Assay: apparent KD of MS2 coat protein, switch OFF state (with FMN for OFF switches, without FMN for ON switches); designed switch direction (-1 OFF switch, 1 ON switch): -1; higher = weaker reporter binding
Settings: FMN input: 0 or 200 uM; Eterna round: R93 (includes R88 designs)
Outline: (§1)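 Illumina sequencing clusters served as templates for on-chip transcription of the designed RNA switches. SNAP-549-labelled MS2 coat protein was then titrated in twofold steps from 0.7 or 1.5 nM to 3 µM, allowing 0.8–1.5 h per step at first and 10–20 min per step later. The buffer held 100 mM Tris-HCl pH 7.5, 80 mM KCl and 4 mM MgCl2, without or with constant ligand. Apparent KD is the median per design of normalised cluster binding-curve fits.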

Sequence	apparent KD of MS2 coat protein
AACAGUACAGGAUAUACAUGAGGAUCACCCAUGUGAAAAUUAAGUGGAGAACCACAGUGUAGAAGGGUACUGGA [Mat - Exclusion 3 - Eli mod - D52]	49.8 nM
AAAAAGGCAGGAUAUACAUGAGGAUCACCCAUGUAGUUGACAAAAAAGAGUCAACAGUGUAGAAGGGCCAAAAA [Exclusion3-cac1]	22.1 nM
AAAACGGUAGGAUAUACGAUUUGGAACUAGACCGAGGAACCACAUGAGGAUCACCCAUGUAGAAGGACCAAAAA [EX2 Malc#18]	10.7 nM
AAAAAACAUGAGGAUCACCCAUGUUAGGAUAUGCUAUGGAAAAUAAAAAUAAAACAUAGCAGAAGGAACAAAAA [Denovo 2]	36.9 nM
AAAAAACAUGAGGAUCACCCAUGUGAGGAUAUCGAAAAAAAAAUAAAAAUAAAACAUACGAGAAGGCACACCAA [Amethyst 59]	35.7 nM
CUCAAGUAAGGAUAUGAAAGAAAAGAAGAGAAAGAAAAGAAUCAGAAGGUACAUGAGGAUCACCCAUGUAAGAA [EteRNA is fun!]	23.1 nM
AAAAAACAUGAGGAUCACCCAUGUCAGGAUAUCGUUGAAAAAAAAAAAAAAAAAAAAGCGAGAAGGGACACGAA [exclusion1-cac3]	41.8 nM
AAGAAACAUGAGGAUCACCCAUGUGAGGAUAUCUAAAAGAAAAGAAAAGAAAGAAGAAAGAGAAGGCACAAAGG [Setut]	64.1 nM
AAAACGGCAGGAUAUACAGUUGAGAACUAGACCGAAAAAAAACAUGAGGAUCACCCAUGUAGAAGGGCCAAAAA [Ex2 Malc#8]	32.5 nM
AGGAAACAUGAGGAUCACCCAUGUAAGGAUAUGAGAAAGAAAAGAAAAGAAAGAAGAAUCAGAAGGUACAAGAA [Semerkhet]	89.2 nM
AGGAUGUCAGGAUAUGUGUAAAGAAUAAAACAAAUAACAACACAGAAGGGACAUGAGGAUCACCCAUGUUAAAA [May 36]	54 nM
AGCAAACAUGAGGAUCACCCAUGUGAGGAUAUGAACGAAAAUAAAUAAAAAUAAAAGUUCAGAAGGUACGAGCA [66%, Wbt, 27]	31.9 nM
AAAAAGAGAGGAUAUACAUGAGGAUCACCCAUGUGAAAGACGAAAAAAAGUCUAAAAAGUAGAAGGCUCAAAAA [65%, Moding Exclusion3-cac2, 12]	22.5 nM
GGGUCACAUGAGGAUCACCCAUGUAAGGAUAUGCUAGGGAUGGAAACCAUUCCGCAACGCAGAAGGUACUAAAG [Janelle Amethyst 18 Mod 12 - Jieux - Exclusion 1]	105 nM
AAAAAAGGAGGAUAUACGAACAUGUCGAAAGACGUGAAGGGACAUGAGGAUCACCCAUGUAGAAGGUUUAAAAA [Mat - Exclusion 2 - JL mod - D85]	19.2 nM
AAAAAAGGAGGAUAUACGUACAUGUCGAAAGACGUGAAGGGACAUGAGGAUCACCCAUGUAGAAGGCUUAAAAA [Mat - Exclusion 2 - JL mod - D70]	22.9 nM
CUCUAGUAAGGAUAUCGAAGAAAAGAAAAGAAAGAAAAGAACGAGAAGGUACAUGAGGAUCACCCAUGUAAGAA [EteRNA is fun!]	19 nM

Sequence	apparent KD of MS2 coat protein
GUGUACAGAGGAUAUAUAUGAGCAUGGAAACAUGCAUCCUCACAUGAGGAUCACCCAUGUAGAAGGCUGUACAC [Ex2: 704]	41.3 nM
GAAGAACAUGAGGAUCACCCAUGUGAGGAUAUACAGAAGGGAAUAAAAUAACCUGAAAGUAGAAGGCACAAGAA [Ex 1 May 41]	65.8 nM
UAAAAGGUAGGAUAUACUUGGAAGACCUGCCAACAAUAACAACAUGAGGAUCACCCAUGUAGAAGGACCAAUAU [Edtiatlema]	19.5 nM
AAAAACCUAGGAUAUACAUGAGGAUCACCCAUGUAAAGAAACAACAAGGGAAACACACGUAGAAGGAGGAAGAA [JR_Exc003_Sub1204]	74.8 nM
AUAAGUCGAGGAUAUACAAAAUGCUAGCGAAAGCUAGCAUAACAUGAGGAUCACCCAUGUAGAAGGCGACAAUA [Tetraloop hairpin BlockHead Variation2]	21.3 nM
GGAAAACAUGAGGAUCACCCAUGUCAGGAUAUACAAAGAAAGAAAGAAAAGAAAGAAAGUAGAAGGGACAAAAG [Amethyst 15]	31.9 nM
AACAGUACAGGAUAUACAUGAGGAUCACCCAUGUGACAUAAAUAAAACAAAAAUAAAAGUAGAAGGGUACUGGA [Ruby 43]	60 nM
AACAGUACAGGAUAUACAUGAGGAUCACCCAUGUGAAAUAAAAGUGGCGUACCACAAAGUAGAAGGGUACUGGA [Mat - Exclusion 3 - JL mod - D22]	119 nM
AUCGUUGGAGGAUAUGCUUGGAAAAAAAAAAAAAAAAAAAAACAUGAGGAUCACCCAUGUAGAAGGUCAAUGGA [Banishment 6 - Jieux - Exclusion 2]	30.5 nM
CAAAACAAAGGAUAUAAAACAGAGGAUAUACAUAAAUAAAAACAUGAGGAUCACCCAUGUAGAAGGCUGAAAAC [Meechl Ex2 R2 m3]	23 nM
CUCAAGUAAGGAUAUGCAAGAAAAGAAAAGAAAGAAAAGAAGCAGAAGGUACAUGAGGAUCACCCAUGUAAGAA [EteRNA is fun!]	42.3 nM
GAAACACAUGAGGAUCACCCAUGUCAGGAUAUUCAAACAAAAACAAAACAAAACAAACGAAGAAGGGACAAAAG [Mat - Same state - Mayanna Mod - D102]	32.6 nM
AUAAAACAUGAGGAUCACCCAUGUAAGGAUAUGCGAAAAUAAAAUAAAAUAAAAUAAAGCAGAAGGUACAAAAA [Insulation 1]	37.3 nM
AAAGGACGAGGAUAUACAUGAGGAUCACCCAUGUAAAAAGCGUAGCAAAAGAGCUUAUGUAGAAGGCGUCCAAA [Meechl Ex3 2 R2 v4]	49.3 nM
AGGAAACAUGAGGAUCACCCAUGUGAGGAUAUUGGAAAGAAAAGAAAAGAAAGAAGAAUAAGAAGGCACAAGAA [Merneith]	18.2 nM
AGUUGGCGAGGAUAUACAUGAGGAUCACCCAUGUGAGAAAAAAAAGUGAGAAAGAAAAGUAGAAGGCGCUGACA [Mat - Exclusion 3 - Lego mod - D88]	314 nM
AACAGUACAGGAUAUACAUGAGGAUCACCCAUGUGAAAAGAAAGUGGCGUACCACAAAGUAGAAGGGUACUGGA [Mat - Exclusion 3 - JL mod - D24]	96.8 nM

System: MS2 coat protein
Assay: apparent KD of MS2 coat protein, switch ON state; designed switch direction (-1 OFF switch, 1 ON switch): -1; higher = weaker reporter binding
Settings: FMN input: 0 or 200 uM; Eterna round: R93 (includes R88 designs)
Outline: as §1

Sequence	apparent KD of MS2 coat protein
AACAGUACAGGAUAUACAUGAGGAUCACCCAUGUGAAAAUUAAGUGGAGAACCACAGUGUAGAAGGGUACUGGA [Mat - Exclusion 3 - Eli mod - D52]	142 nM
AAAAAGGCAGGAUAUACAUGAGGAUCACCCAUGUAGUUGACAAAAAAGAGUCAACAGUGUAGAAGGGCCAAAAA [Exclusion3-cac1]	18.1 nM
AAAACGGUAGGAUAUACGAUUUGGAACUAGACCGAGGAACCACAUGAGGAUCACCCAUGUAGAAGGACCAAAAA [EX2 Malc#18]	11.9 nM
AAAAAACAUGAGGAUCACCCAUGUUAGGAUAUGCUAUGGAAAAUAAAAAUAAAACAUAGCAGAAGGAACAAAAA [Denovo 2]	18.6 nM
AAAAAACAUGAGGAUCACCCAUGUGAGGAUAUCGAAAAAAAAAUAAAAAUAAAACAUACGAGAAGGCACACCAA [Amethyst 59]	30.5 nM
CUCAAGUAAGGAUAUGAAAGAAAAGAAGAGAAAGAAAAGAAUCAGAAGGUACAUGAGGAUCACCCAUGUAAGAA [EteRNA is fun!]	30.3 nM
AAAAAACAUGAGGAUCACCCAUGUCAGGAUAUCGUUGAAAAAAAAAAAAAAAAAAAAGCGAGAAGGGACACGAA [exclusion1-cac3]	60.7 nM
AAGAAACAUGAGGAUCACCCAUGUGAGGAUAUCUAAAAGAAAAGAAAAGAAAGAAGAAAGAGAAGGCACAAAGG [Setut]	34.7 nM
AAAACGGCAGGAUAUACAGUUGAGAACUAGACCGAAAAAAAACAUGAGGAUCACCCAUGUAGAAGGGCCAAAAA [Ex2 Malc#8]	28.4 nM
AGGAAACAUGAGGAUCACCCAUGUAAGGAUAUGAGAAAGAAAAGAAAAGAAAGAAGAAUCAGAAGGUACAAGAA [Semerkhet]	34.4 nM
AGGAUGUCAGGAUAUGUGUAAAGAAUAAAACAAAUAACAACACAGAAGGGACAUGAGGAUCACCCAUGUUAAAA [May 36]	44.9 nM
AGCAAACAUGAGGAUCACCCAUGUGAGGAUAUGAACGAAAAUAAAUAAAAAUAAAAGUUCAGAAGGUACGAGCA [66%, Wbt, 27]	27.7 nM
AAAAAGAGAGGAUAUACAUGAGGAUCACCCAUGUGAAAGACGAAAAAAAGUCUAAAAAGUAGAAGGCUCAAAAA [65%, Moding Exclusion3-cac2, 12]	17.1 nM
GGGUCACAUGAGGAUCACCCAUGUAAGGAUAUGCUAGGGAUGGAAACCAUUCCGCAACGCAGAAGGUACUAAAG [Janelle Amethyst 18 Mod 12 - Jieux - Exclusion 1]	50.4 nM
AAAAAAGGAGGAUAUACGAACAUGUCGAAAGACGUGAAGGGACAUGAGGAUCACCCAUGUAGAAGGUUUAAAAA [Mat - Exclusion 2 - JL mod - D85]	35.9 nM
AAAAAAGGAGGAUAUACGUACAUGUCGAAAGACGUGAAGGGACAUGAGGAUCACCCAUGUAGAAGGCUUAAAAA [Mat - Exclusion 2 - JL mod - D70]	37.2 nM
CUCUAGUAAGGAUAUCGAAGAAAAGAAAAGAAAGAAAAGAACGAGAAGGUACAUGAGGAUCACCCAUGUAAGAA [EteRNA is fun!]	34.5 nM

Sequence	apparent KD of MS2 coat protein
GUGUACAGAGGAUAUAUAUGAGCAUGGAAACAUGCAUCCUCACAUGAGGAUCACCCAUGUAGAAGGCUGUACAC [Ex2: 704]	624 nM
GAAGAACAUGAGGAUCACCCAUGUGAGGAUAUACAGAAGGGAAUAAAAUAACCUGAAAGUAGAAGGCACAAGAA [Ex 1 May 41]	45.7 nM
UAAAAGGUAGGAUAUACUUGGAAGACCUGCCAACAAUAACAACAUGAGGAUCACCCAUGUAGAAGGACCAAUAU [Edtiatlema]	23.2 nM
AAAAACCUAGGAUAUACAUGAGGAUCACCCAUGUAAAGAAACAACAAGGGAAACACACGUAGAAGGAGGAAGAA [JR_Exc003_Sub1204]	24.5 nM
AUAAGUCGAGGAUAUACAAAAUGCUAGCGAAAGCUAGCAUAACAUGAGGAUCACCCAUGUAGAAGGCGACAAUA [Tetraloop hairpin BlockHead Variation2]	21.7 nM
GGAAAACAUGAGGAUCACCCAUGUCAGGAUAUACAAAGAAAGAAAGAAAAGAAAGAAAGUAGAAGGGACAAAAG [Amethyst 15]	27.1 nM
AACAGUACAGGAUAUACAUGAGGAUCACCCAUGUGACAUAAAUAAAACAAAAAUAAAAGUAGAAGGGUACUGGA [Ruby 43]	28.5 nM
AACAGUACAGGAUAUACAUGAGGAUCACCCAUGUGAAAUAAAAGUGGCGUACCACAAAGUAGAAGGGUACUGGA [Mat - Exclusion 3 - JL mod - D22]	27.3 nM
AUCGUUGGAGGAUAUGCUUGGAAAAAAAAAAAAAAAAAAAAACAUGAGGAUCACCCAUGUAGAAGGUCAAUGGA [Banishment 6 - Jieux - Exclusion 2]	49.9 nM
CAAAACAAAGGAUAUAAAACAGAGGAUAUACAUAAAUAAAAACAUGAGGAUCACCCAUGUAGAAGGCUGAAAAC [Meechl Ex2 R2 m3]	21.9 nM
CUCAAGUAAGGAUAUGCAAGAAAAGAAAAGAAAGAAAAGAAGCAGAAGGUACAUGAGGAUCACCCAUGUAAGAA [EteRNA is fun!]	25.4 nM
GAAACACAUGAGGAUCACCCAUGUCAGGAUAUUCAAACAAAAACAAAACAAAACAAACGAAGAAGGGACAAAAG [Mat - Same state - Mayanna Mod - D102]	27 nM
AUAAAACAUGAGGAUCACCCAUGUAAGGAUAUGCGAAAAUAAAAUAAAAUAAAAUAAAGCAGAAGGUACAAAAA [Insulation 1]	29.1 nM
AAAGGACGAGGAUAUACAUGAGGAUCACCCAUGUAAAAAGCGUAGCAAAAGAGCUUAUGUAGAAGGCGUCCAAA [Meechl Ex3 2 R2 v4]	20 nM
AGGAAACAUGAGGAUCACCCAUGUGAGGAUAUUGGAAAGAAAAGAAAAGAAAGAAGAAUAAGAAGGCACAAGAA [Merneith]	21.8 nM
AGUUGGCGAGGAUAUACAUGAGGAUCACCCAUGUGAGAAAAAAAAGUGAGAAAGAAAAGUAGAAGGCGCUGACA [Mat - Exclusion 3 - Lego mod - D88]	54.6 nM
AACAGUACAGGAUAUACAUGAGGAUCACCCAUGUGAAAAGAAAGUGGCGUACCACAAAGUAGAAGGGUACUGGA [Mat - Exclusion 3 - JL mod - D24]	27.5 nM
